In this test the target is T1, α1-antitrypsin (UniProt P01009 25-418).
T1 construct: Co-expressed with HTRA1-V5 in HEK293 cells; Complex detected in serum-free conditioned medium by anti-V5 immunoblot; also called al-antitrypsin
Briefly: co-expression in HEK293, anti-V5 immunoblot of conditioned medium. How it is done: To assay formation of a stable complex with α1-antitrypsin, we transiently expressed α1-antitrypsin and either wild-type or mutated HTRA1 cDNAs with a VS tag at the C-terminus in HEK293 cells. These cells were grown in serum-free medium, and conditioned media were then immunoblotted with anti-V5 antibody.¹⁴
For orientation: In western blotting, separated proteins are transferred to a membrane and probed.

T1 sequence (P01009 25-418 limits assumed): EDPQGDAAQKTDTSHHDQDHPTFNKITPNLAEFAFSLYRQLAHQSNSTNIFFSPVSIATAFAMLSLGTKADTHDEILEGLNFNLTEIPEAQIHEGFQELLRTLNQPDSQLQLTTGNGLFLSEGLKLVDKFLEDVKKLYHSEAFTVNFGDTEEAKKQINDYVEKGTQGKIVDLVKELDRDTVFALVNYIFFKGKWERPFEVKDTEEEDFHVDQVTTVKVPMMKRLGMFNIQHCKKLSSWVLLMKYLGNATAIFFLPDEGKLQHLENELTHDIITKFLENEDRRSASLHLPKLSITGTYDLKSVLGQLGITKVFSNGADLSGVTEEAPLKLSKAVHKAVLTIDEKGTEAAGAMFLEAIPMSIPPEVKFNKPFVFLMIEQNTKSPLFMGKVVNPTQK

B1: HTRA1 R302X with a V5 tag at the C-terminus (enzyme)
chain: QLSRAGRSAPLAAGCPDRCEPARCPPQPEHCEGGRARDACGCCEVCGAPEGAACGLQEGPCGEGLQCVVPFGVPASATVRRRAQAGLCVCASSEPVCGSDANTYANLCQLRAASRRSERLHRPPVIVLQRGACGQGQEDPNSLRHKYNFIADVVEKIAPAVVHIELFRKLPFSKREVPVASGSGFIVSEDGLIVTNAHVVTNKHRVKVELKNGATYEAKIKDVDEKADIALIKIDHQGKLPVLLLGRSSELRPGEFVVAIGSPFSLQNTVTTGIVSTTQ
notes: The range 1-301 is derived from that statement; not shown: C-terminal V5 tag
As for B1, the binding result is reported as “no binding”.

Source of the values: US20120100536A1 (UNIVERSITY OF TOKYO, published 2012).
